Source: the supplement of paper PMC6757056
± gives the standard deviation of the averaged measurements.

B1: library; a variant is named by its letters at N, in order (parent)
chain: GCUGUCACCGGUGCUUGGUACGUUAUAUUCAGCCGGUCUGAUGAGUCUNNNNNNAGACGAAACAGC

Assays:
(6R,S)-folinic acid [1] = variants of: B1; assay: normalized RNA/DNA level without ligand (relative to sTRSVctl = 100) (log10 (% of sTRSVctl)); HEK293T overexpressing SLC46A1; higher = less ribozyme self-cleavage, higher mRNA level; settings: without (6R,S)-folinic acid; ligand present: no
How it was run: (§1)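 Ribozyme switch library plasmids linked to reporters were introduced into HEK293T cells at 4 µg per 6-well well, with ligand, if any, added 1 h before. Total RNA was extracted with EDTA 72 h later, reverse-transcribed, amplified, barcoded and sequenced. RNA level was computed from RNA over DNA reads relative to a spiked-in non-cleaving sequence or the top sequences, then scaled and log-transformed. The top set was 25 sequences, values were ×100 and log10, and the cutoff was ≥100 DNA reads.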

(6R,S)-folinic acid [2] = variants of: B1; assay: normalized RNA/DNA level with ligand (relative to sTRSVctl = 100) (log10 (% of sTRSVctl)); HEK293T overexpressing SLC46A1; ligand concentration (+) RNA-Seq: 6 mM; higher = less ribozyme self-cleavage, higher mRNA level; settings: with (6R,S)-folinic acid; ligand present: yes
How it was run: as §1

Variant | normalized RNA/DNA level without ligand (log10) ((6R,S)-folinic acid [1]) | normalized RNA/DNA level with ligand (log10) ((6R,S)-folinic acid [2])
CCUCCG | 2.07 ± 0.029 | 2.049 ± 0.011
GCUCCG | 2.027 ± 0.0072 | 2.05 ± 0.055
UCUCCG | 1.96 ± 0.065 | 2.022 ± 0.013
ACUCCG | 2.001 ± 0.014 | 2.03 ± 0.064
CCUCCU | 2.06 ± 0.036 | 2.037 ± 0.0023
GCUCCU | 2.09 ± 0.024 | 2.07 ± 0.04
UCUCCU | 2.01 ± 0.028 | 2.02 ± 0.032
ACUCCU | 2.075 ± 0.0094 | 2.08 ± 0.05
CCUCGA | 1.998 ± 0.011 | 2.02 ± 0.029
GCUCGA | 2.039 ± 0.0067 | 2.02 ± 0.065
ACUCGA | 1.994 ± 0.019 | 2.03 ± 0.025
CCUCGC | 2.08 ± 0.03 | 2.033 ± 0.017
GCUCGC | 2.02 ± 0.027 | 2.0264 ± 0.00071
UCUCGC | 2.1 ± 0.032 | 2.05 ± 0.028
ACUCGC | 2.034 ± 0.012 | 2.01 ± 0.041
CCUCGG | 2.078 ± 0.0042 | 1.99 ± 0.012
GCUCGG | 2.034 ± 0.016 | 2.03 ± 0.026
UCUCGG | 2.03 ± 0.034 | 2.042 ± 0.0089
ACUCGG | 1.979 ± 0.013 | 2.02 ± 0.024
CCUCGU | 2.01 ± 0.037 | 2.01 ± 0.07

Variant | normalized RNA/DNA level without ligand (log10) ((6R,S)-folinic acid [1]) | normalized RNA/DNA level with ligand (log10) ((6R,S)-folinic acid [2])
ACUCGU | 2.028 ± 0.016 | 1.983 ± 0.016
CCUCUA | 2.029 ± 0.0036 | 2.03 ± 0.031
GCUCUA | 2.01 ± 0.024 | 2.03 ± 0.018
UCUCUA | 1.997 ± 0.0062 | 2.01 ± 0.04
ACUCUA | 2.005 ± 0.0056 | 2.01 ± 0.06
CCUCUC | 2.072 ± 0.018 | 2.04 ± 0.078
GCUCUC | 2.126 ± 0.0057 | 2.08 ± 0.039
UCUCUC | 2.076 ± 0.015 | 2.04 ± 0.035
ACUCUC | 2.086 ± 0.0057 | 2.06 ± 0.024
CCUCUG | 2.035 ± 0.011 | 2 ± 0.04
UCUCUG | 1.89 ± 0.011 | 1.96 ± 0.027
ACUCUG | 1.925 ± 0.018 | 2 ± 0.025
CCUCUU | 2.033 ± 0.012 | 2.022 ± 0.0093
GCUCUU | 2.038 ± 0.014 | 1.998 ± 0.011
UCUCUU | 2.06 ± 0.034 | 2.06 ± 0.059
ACUCUU | 2.0142 ± 0.0018 | 2.01 ± 0.046
CCUGAA | 2.0009 ± 0.0006 | 2 ± 0.044
UCUGAA | 1.911 ± 0.0014 | 1.98 ± 0.05
CCUGAC | 2 ± 0.0059 | 1.993 ± 0.0097
GCUGAC | 1.986 ± 0.0051 | 2.01 ± 0.045

Variant | normalized RNA/DNA level without ligand (log10) ((6R,S)-folinic acid [1]) | normalized RNA/DNA level with ligand (log10) ((6R,S)-folinic acid [2])
UCUGAC | 2.011 ± 0.0043 | 2.01 ± 0.052
ACUGAC | 2.002 ± 0.0086 | 1.999 ± 0.0088
CCUGAG | 1.932 ± 0.019 | 1.97 ± 0.025
GCUGAG | 1.974 ± 0.013 | 2.04 ± 0.039
UCUGAG | 1.745 ± 0.011 | 1.98 ± 0.03
UCUGAU | 1.973 ± 0.008 | 2 ± 0.046
ACUGAU | 1.9488 ± 0.0011 | 2 ± 0.031
CCUGCA | 2.047 ± 0.0035 | 2.059 ± 0.0067
GCUGCA | 2.01 ± 0.022 | 2.03 ± 0.047
UCUGCA | 1.9967 ± 0.0014 | 2.06 ± 0.022
ACUGCA | 2.02 ± 0.013 | 2.05 ± 0.009
CCUGCC | 2.058 ± 0.0075 | 2 ± 0.068
UCUGCC | 1.981 ± 0.0055 | 2.02 ± 0.025
ACUGCC | 2.06 ± 0.024 | 2.06 ± 0.039
CCUGCG | 2.01 ± 0.016 | 2.033 ± 0.02
GCUGCG | 2.002 ± 0.0047 | 2.05 ± 0.029
UCUGCG | 1.826 ± 0.008 | 2.03 ± 0.034
ACUGCG | 1.902 ± 0.011 | 2.013 ± 0.013
